Measured values as given in US20200384066A1.

Target: angiogenin (UniProt P03950)
Assay: phage ELISA; angiogenin coated at 4 ug/mL, negative control phage, anti-g8p antibody and HRP secondary

Sequence of angiogenin (P03950 25-147 limits assumed): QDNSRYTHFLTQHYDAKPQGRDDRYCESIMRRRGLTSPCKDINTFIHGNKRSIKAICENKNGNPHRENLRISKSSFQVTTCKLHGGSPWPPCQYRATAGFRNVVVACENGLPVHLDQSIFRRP

## wild type phage
  OD value (450 nm): 0.191 OD
